Like-named read-outs stand apart in the source and are kept apart here.
How the values were obtained:
Assay in all cases: cell-based or functional assay
CD19 on Raji B cells [1] = target: T1, CD19 on Raji B cells (human, UniProt P15391 20-556)
T1 sequence (looked up): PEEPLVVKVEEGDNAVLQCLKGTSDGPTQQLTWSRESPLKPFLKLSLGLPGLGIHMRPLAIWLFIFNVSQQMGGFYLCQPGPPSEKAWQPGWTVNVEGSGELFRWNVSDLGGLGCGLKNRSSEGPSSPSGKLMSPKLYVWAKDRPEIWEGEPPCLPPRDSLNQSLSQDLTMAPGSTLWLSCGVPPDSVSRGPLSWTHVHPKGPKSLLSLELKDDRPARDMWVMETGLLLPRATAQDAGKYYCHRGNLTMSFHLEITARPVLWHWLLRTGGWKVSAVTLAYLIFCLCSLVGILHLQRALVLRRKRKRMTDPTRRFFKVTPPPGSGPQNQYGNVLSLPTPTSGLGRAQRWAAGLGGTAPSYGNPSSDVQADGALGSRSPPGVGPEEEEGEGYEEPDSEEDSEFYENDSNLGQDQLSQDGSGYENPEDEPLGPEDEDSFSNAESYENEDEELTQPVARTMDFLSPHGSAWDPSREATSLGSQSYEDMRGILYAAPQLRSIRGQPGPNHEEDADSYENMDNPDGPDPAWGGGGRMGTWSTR

CD19 on Raji B cells [2] = target: T1, CD19 on Raji B cells; remark: listed apart in the source
CD20 on Raji B cells [3] = target: T2, CD20 on Raji B cells (human, UniProt P11836 1-297)
T2 sequence (looked up): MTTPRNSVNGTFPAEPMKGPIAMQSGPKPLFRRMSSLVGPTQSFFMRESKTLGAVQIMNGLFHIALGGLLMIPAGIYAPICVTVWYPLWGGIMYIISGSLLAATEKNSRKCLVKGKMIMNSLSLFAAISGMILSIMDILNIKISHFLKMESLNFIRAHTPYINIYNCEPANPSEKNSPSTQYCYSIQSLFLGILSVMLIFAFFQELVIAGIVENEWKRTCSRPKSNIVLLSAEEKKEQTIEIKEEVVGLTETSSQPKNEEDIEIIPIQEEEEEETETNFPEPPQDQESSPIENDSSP

CD20 on Raji B cells [4] = target: T2, CD20 on Raji B cells; remark: listed apart in the source

B1: v5851 (bispecific antibody)
chain: not shown
heavy: not shown
light: DIVMTQSPATLSLSPGERATLSCRSSKSLQNVNGNTYLYWFQQKPGQSPQLLIYRMSNLNSGVPDRFSGSGSGTEFTLTISSLEPEDFAVYYCMQHLEYPITFGAGTKLEIKRTVAAPSVFIFPPSDEQLKSGTASVVCLLNNFYPREAKVQWKVDNALQSGNSQESVTEQDSKDSTYSLSSTLTLSKADYEKHKVYACEVTHQGLSSPVTKSFNRGEC
CD19 on Raji B cells [1]
  % Bridging Jurkat/Raji (whole cell FACS T:B bridging; CD3 on Jurkat bridged to the B cell antigen on Raji): 23.2%

B2: v5852 (bispecific antibody, human IgG1, kappa, L234A L235A)
heavy: QVQLVQSGGGVVQPGRSLRLSCKASGYTFTRYTMHWVRQAPGKGLEWIGYINPSRGYTNYNQKVKDRFTISRDNSKNTAFLQMDSLRPEDTGVYFCARYYDDHYCLDYWGQGTPVTVSSASTKGPSVFPLAPSSKSTSGGTAALGCLVKDYFPEPVTVSWNSGALTSGVHTFPAVLQSSGLYSLSSVVTVPSSSLGTQTYICNVNHKPSNTKVDKKVEPKSCDKTHTCPPCPAPELLGGPSVFLFPPKPKDTLMISRTPEVTCVVVDVSHEDPEVKFNWYVDGVEVHNAKTKPREEQYNSTYRVVSVLTVLHQDWLNGKEYKCKVSNKALPAPIEKTISKAKGQPREPQVYVYPPSRDELTKNQVSLTCLVKGFYPSDIAVEWESNGQPENNYKTTPPVLDSDGSFALVSKLTVDKSRWQQGNVFSCSVMHEALHNHYTQKSLSLSPGK
chain: EVQLVESGGGLVKPGGSLKLSCAASGYTFTSYVMHWVRQAPGKGLEWIGYINPYNDGTKYNEKFQGRVTISSDKSISTAYMELSSLRSEDTAMYYCARGTYYYGTRVFDYWGQGTLVTVSSGGGGSGGGGSGGGGSDIVMTQSPATLSLSPGERATLSCRSSKSLQNVNGNTYLYWFQQKPGQSPQLLIYRMSNLNSGVPDRFSGSGSGTEFTLTISSLEPEDFAVYYCMQHLEYPITFGAGTKLEIKAAEPKSSDKTHTCPPCPAPEAAGGPSVFLFPPKPKDTLMISRTPEVTCVVVSVSHEDPEVKFNWYVDGVEVHNAKTKPREEQYNSTYRVVSVLTVLHQDWLNGKEYKCKVSNKALPAPIEKTISKAKGQPREPQVYVLPPSRDELTKNQVSLLCLVKGFYPSDIAVEWESNGQPENNYLTWPPVLDSDGSFFLYSKLTVDKSRWQQGNVFSCSVMHEALHNHYTQKSLSLSPGK
light: DIQMTQSPSSLSASVGDRVTITCSASSSVSYMNWYQQTPGKAPKRWIYDTSKLASGVPSRFSGSGSGTDYTFTISSLQPEDIATYYCQQWSSNPFTFGQGTKLQITRTVAAPSVFIFPPSDEQLKSGTASVVCLLNNFYPREAKVQWKVDNALQSGNSQESVTEQDSKDSTYSLSSTLTLSKADYEKHKVYACEVTHQGLSSPVTKSFNRGEC
CD19 on Raji B cells [2]
  % Bridging Jurkat/Raji (whole cell FACS T:B bridging; CD3 on Jurkat bridged to the B cell antigen on Raji): 30.4%

B3: v6325 (bispecific antibody, human IgG1, kappa)
heavy: QVQLVQSGGGVVQPGRSLRLSCKASGYTFTRYTMHWVRQAPGKGLEWIGYINPSRGYTNYNQKVKDRFTISRDNSKNTAFLQMDSLRPEDTGVYFCARYYDDHYCLDYWGQGTPVTVSSASTKGPSVFPLAPSSKSTSGGTAALGCLVKDYFPEPVTVSWNSGALTSGVHTFPAVLQSSGLYSLSSVVTVPSSSLGTQTYICNVNHKPSNTKVDKKVEPKSCDKTHTCPPCPAPELLGGPSVFLFPPKPKDTLMISRTPEVTCVVVDVSHEDPEVKFNWYVDGVEVHNAKTKPREEQYNSTYRVVSVLTVLHQDWLNGKEYKCKVSNKALPAPIEKTISKAKGQPREPQVYVYPPSRDELTKNQVSLTCLVKGFYPSDIAVEWESNGQPENNYKTTPPVLDSDGSFALVSKLTVDKSRWQQGNVFSCSVMHEALHNHYTQKSLSLSPGK
chain: not shown
light: DIQMTQSPSSLSASVGDRVTITCSASSSVSYMNWYQQTPGKAPKRWIYDTSKLASGVPSRFSGSGSGTDYTFTISSLQPEDIATYYCQQWSSNPFTFGQGTKLQITRTVAAPSVFIFPPSDEQLKSGTASVVCLLNNFYPREAKVQWKVDNALQSGNSQESVTEQDSKDSTYSLSSTLTLSKADYEKHKVYACEVTHQGLSSPVTKSFNRGEC
CD20 on Raji B cells [3]
  % Bridging Jurkat/Raji (whole cell FACS T:B bridging; CD3 on Jurkat bridged to the B cell antigen on Raji): 15.7%

B4: v1821 (bispecific antibody, human IgG1, kappa)
heavy 1: QVQLVQSGGGVVQPGRSLRLSCKASGYTFTSYTMHWVRQAPGKGLEWIGYINPSSGYTKYNQKFKDRFTISADKSKSTAFLQMDSLRPEDTGVYFCARWQDYDVYFDYWGQGTPVTVSSASTKGPSVFPLAPSSKSTSGGTAALGCLVKDYFPEPVTVSWNSGALTSGVHTFPAVLQSSGLYSLSSVVTVPSSSLGTQTYICNVNHKPSNTKVDKKVEPKSCDKTHTCPPCPAPELLGGPSVFLFPPKPKDTLMISRTPEVTCVVVDVSHEDPEVKFNWYVDGVEVHNAKTKPREEQYNSTYRVVSVLTVLHQDWLNGKEYKCKVSNKALPAPIEKTISKAKGQPREPQVYVYPPSRDELTKNQVSLTCLVKGFYPSDIAVEWESNGQPENNYKTTPPVLDSDGSFALVSKLTVDKSRWQQGNVFSCSVMHEALHNHYTQKSLSLSPGK
heavy 2: not shown
light: QIVLSQSPAILSASPGEKVTMTCRASSSVSYIHWFQQKPGSSPKPWIYATSNLASGVPVRFSGSGSGTSYSLTISRVEAEDAATYYCQQWTSNPPTFGGGTKLEIKRTVAAPSVFIFPPSDEQLKSGTASVVCLLNNFYPREAKVQWKVDNALQSGNSQESVTEQDSKDSTYSLSSTLTLSKADYEKHKVYACEVTHQGLSSPVTKSFNRGEC
CD20 on Raji B cells [4]
  % Bridging Jurkat/Raji (whole cell FACS T:B bridging; CD3 on Jurkat bridged to the B cell antigen on Raji): 7.3%
